The target in assay [1] is T1, His10-BTLA^ICD BTLA^FFFY, pre-phosphorylated (human, UniProt Q7Z6A9 190-289, Y226F | Y243F | Y257F, pre-phosphorylated with Fyn; lone tyrosine (Y282) in the ITSM).
T1 construct: BTLA intracellular domain, human, aa 190-289; triple-tyrosine mutant; Monomeric fraction of the gel filtration was used; also called BTLA-ITSM; source: E. coli (pET28A), purified (Ni-NTA, gel filtration); phosphorylated with purified Fyn; not shown: His10, N-terminal, kept
T1 sequence (looked up): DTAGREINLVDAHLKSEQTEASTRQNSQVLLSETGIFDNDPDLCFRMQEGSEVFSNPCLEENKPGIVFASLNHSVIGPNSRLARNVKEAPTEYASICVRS
As to the kind of experiment: SPR; OpenSPR (Nicoya); pre-phosphorylated His10-tagged PD-1 or BTLA ICD immobilised on a Ni sensor chip (about 1500 RU); SH2 injected at 20-1000 nM, 20 μl/min; 20 mM HEPES, 150 mM NaCl, 5 mM imidazole, 0.05% Tween-20, 10% glycerol, pH 7.5; equilibrium analysis (Evaluate EC50, TraceDrawer). Conditions: both partners purified. (SPR reads the build-up and loss of mass on a sensor chip optically.)

Assay [2] addresses T2, His10-PD-1^ICD PD-1^FY, pre-phosphorylated (human, UniProt Q15116 194-288, Y223F, pre-phosphorylated with Fyn; the only tyrosine is in the ITSM (Y248)).
T2 construct: Monomeric fraction of the gel filtration was used; also called PD-1-ITSM; phosphorylated PD-1-ITSM; source: E. coli (pET28A), purified (Ni-NTA, gel filtration); phosphorylated with purified Fyn; not shown: His10, N-terminal, kept
T2 sequence (looked up): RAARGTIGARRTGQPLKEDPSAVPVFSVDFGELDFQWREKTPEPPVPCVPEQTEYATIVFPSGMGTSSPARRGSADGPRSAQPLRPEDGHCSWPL
Described as above. Conditions: both partners purified.

B1: SNAP-SHP1-cSH2 (domain or fragment)
chain: WYHGHMSGGQAETLLQAKGEPWTFLVRESLSQPGDFVLSVLSDQPKAGPGSPLRVTHIKVMCEGGRYTVGGLETFDSLTDLVEHFKKTGIEEASGAFVYLRQPY
B1: the Kd in assay [1] turned out to be 860 nM; in assay [2] it was 1700 nM.

Broadly, the Kd is a measure of binding affinity in units of concentration. A high value points to a looser complex.

The values are drawn from publication PMC8631942 (eLife, 2021).
